Laboratory results published in paper PMC12048575, “Structure of the complex of C1q-like 3 protein with adhesion-GPCR BAI3” (Communications Biology, 2025).

Target: T1, Mouse BAI3 N-terminal domain (NTD) encompassing residues 26-290 (mouse, UniProt Q80ZF8 26-290)
T1 construct: The vector encodes a 3C site, an Fc-tag and a C-terminal His tag after the NTD; the His tag lies after the 3C site and so was probably removed with the Fc; also called BAI3 NTD; BAI3 CUB domain; source: HEK293S GnTI- cells, BacMam virus (pVLAD8L), secreted, purified (Ni2+-NTA, 3C cleavage, SEC); not shown: Fc, C-terminal, cleaved
T1 sequence (looked up): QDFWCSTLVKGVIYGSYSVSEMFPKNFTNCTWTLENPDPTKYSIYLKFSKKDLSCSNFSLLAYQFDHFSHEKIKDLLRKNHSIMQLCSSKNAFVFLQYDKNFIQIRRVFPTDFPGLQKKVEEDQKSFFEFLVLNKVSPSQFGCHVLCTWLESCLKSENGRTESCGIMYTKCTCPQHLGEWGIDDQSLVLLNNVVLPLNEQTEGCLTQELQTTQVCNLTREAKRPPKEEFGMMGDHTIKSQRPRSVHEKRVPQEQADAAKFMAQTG
Experiment: SEC; purified proteins mixed, size-exclusion chromatography and Coomassie-stained SDS-PAGE of fractions; 1x HBS (10 mM HEPES pH 7.2, 150 mM NaCl) with 2 mM CaCl2
Conditions: both partners purified

binding result: binds
B1: C1ql3 globular C1q-like domain (residues 122-255) (domain or fragment, mouse, UniProt Q9ESN4 122-255, looked up)
chain: STVPKIAFYAGLKRQHEGYEVLKFDDVVTNLGNHYDPTTGKFTCSIPGIYFFTYHVLMRGGDGTSMWADLCKNNQVRASAIAQDADQNYDYASNSVVLHLEPGDEVYIKLDGGKAHGGNNNKYSTFSGFIIYAD
notes: C1q-like 3 protein (C1ql3), mouse, C1q-like domain, residues 122-255; buffer contained 2 mM CaCl2; The tag is surmised from the Ni-NTA step; also called C1q-like domain trimer of C1ql3; C1ql3 C1q-like domain; source: Expi293F GnTI- cells, transfected (pEG BacMam), purified (Ni2+-NTA, SEC)
